In IntAct's records for PubMed 16501113:

B1: Probable early E4 11 kDa protein (Human adenovirus C serotype 5 (HAdV-5)), P04489 (parent)
chain: MIRCLRLKVEGALEQIFTMAGLNIRDLLRDILRRWRDENYLGMVEGAGMFIEEIHPEGFSLYVHLDVRAVCLLEAIVQHLTNAIICSLAVEFDHATGGERVHLIDLHFEVLDNLLE

Variants of: B1
Conditions: with PML

Row | Variant | effect of a mutation on the interaction
1 | N82A | disrupting interaction
2 | E10A | decreasing interaction
3 | E74A | decreasing interaction
4 | C4A | decreasing interaction

Variants of: B1
Conditions: with PML
Remark: another data set of the same source

Row | Variant | effect of a mutation on the interaction
5 | L103A | disrupting interaction
